Source: patent US20240343821A1, “OFATUMUMAB FOR TREATING PEDIATRIC MS” (NOVARTIS AG, priority 2021, published 2024)

Assays:
Assay type in all cases: in vivo, human
[1] = Ofatumumab half-life at steady state after subcutaneous administration; details: following subcutaneous administration of repeated 20 mg doses
Protocol: The half-life of ofatumumab at steady state can be approximately 16 days, in particular following subcutaneous administration of repeated 20 mg doses.

[2] = Multiple Sclerosis Impact Scale (MSIS-29) under ofatumumab; details: administration of ofatumumab
Protocol: The MSIS-29 version 2 is a 29-item, self-administered questionnaire that includes 2 domains: physical and psychological. Responses were captured on a 4-point ordinal scale ranging from 1 (not at all) to 4 (extremely), with higher scores reflecting greater impact on day-to-day life. The MSIS-29 takes about 5 minutes to complete and the questions are designed to determine the patient's views about the impact of MS on their day-to-day life during the past 2 weeks. Reference is made to Hobart J and Cano S (2009), “Improving the evaluation of therapeutic interventions in multiple sclerosis: the role of new psychometric methods”, Health Technol Assess; 13(12):iii, ix-x, […] to Hobart J, Lamping D, Fitzpatrick R, et al (2001), “The Multiple Sclerosis Impact Scale (MSIS-29): a new patient-based outcome measure”, Brain; 124(Pt 5):962-73.

[3] = tested on: B cells; test: B cell depletion under the claimed ofatumumab dosage regimen; details: loading dose weeks 0, 1, 2; maintenance from week 8 every six weeks
Excerpt: This has been completely surprising because there are significant differences between adult patients and pediatric patients. These differences relate, inter alia, to physiology, metabolism, and body weight. In this context, it is also noted that there is a higher baseline B cell count in children compared to adults and, therefore, it would not have been expected that the claimed dosage regimen is able to consistently deplete B cells in patients as defined in the claims.

[4] = Immunoglobulin (IgG) levels under long-term ofatumumab therapy; details: in the long run, long-term treatment
Excerpt: Generally, side effects and adverse events associated with B cell-depleting therapies such as ocrelizumab therapy are reported to be associated with a reduction of immunoglobulins (e.g. IgG).

## Ofatumumab
[1]
  half-life at steady state: approximately 16 days
[2]
  MS impact scale MSIS-29: advantageous reduction
[3]
  depletion of B cells (B cell count threshold): < 8 cells per microliter
[4]
  reduction of immunoglobulins (e.g. IgG): does not cause reduction of immunoglobulins
